# From patent publication US20240270821A1, “GIP/GLP1/GCG TRI-RECEPTOR AGONISTS AND USES THEREOF” (priority 2023, published 2024)
# Columns and labels:
# Assay in all cases: cell-based or functional assay
# [1] = target: T1, human GIP receptor (human) (UniProt P48546)
# T1 sequence (looked up): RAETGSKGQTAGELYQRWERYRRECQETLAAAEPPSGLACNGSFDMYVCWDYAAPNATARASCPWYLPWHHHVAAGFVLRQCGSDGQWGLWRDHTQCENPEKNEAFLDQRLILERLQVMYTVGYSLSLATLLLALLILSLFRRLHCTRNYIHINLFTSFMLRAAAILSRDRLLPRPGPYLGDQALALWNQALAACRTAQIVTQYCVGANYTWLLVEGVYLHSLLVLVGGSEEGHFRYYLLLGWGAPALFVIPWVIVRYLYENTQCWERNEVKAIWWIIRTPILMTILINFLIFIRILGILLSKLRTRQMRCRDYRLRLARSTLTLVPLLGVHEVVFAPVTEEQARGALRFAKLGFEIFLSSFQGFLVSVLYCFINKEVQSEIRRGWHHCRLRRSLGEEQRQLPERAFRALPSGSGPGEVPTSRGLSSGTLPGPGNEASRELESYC
# [2] = target: human glucagon receptor (human) (UniProt P47871)
# [3] = target: hGLP-1R (Homo sapiens, UniProt P43220)
# Sequence of hGLP-1R (P43220 24-463): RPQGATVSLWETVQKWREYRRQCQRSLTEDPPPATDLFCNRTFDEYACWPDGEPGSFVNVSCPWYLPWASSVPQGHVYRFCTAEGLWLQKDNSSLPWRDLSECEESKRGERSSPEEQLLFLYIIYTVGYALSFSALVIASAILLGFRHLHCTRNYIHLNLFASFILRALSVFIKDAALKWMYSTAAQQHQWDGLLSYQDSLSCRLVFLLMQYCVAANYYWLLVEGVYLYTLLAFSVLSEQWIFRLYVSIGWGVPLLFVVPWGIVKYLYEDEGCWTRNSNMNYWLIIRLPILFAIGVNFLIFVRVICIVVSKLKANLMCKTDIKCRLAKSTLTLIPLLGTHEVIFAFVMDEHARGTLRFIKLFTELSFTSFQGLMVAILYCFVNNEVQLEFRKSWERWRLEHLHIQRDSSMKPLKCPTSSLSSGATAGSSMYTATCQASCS
# Sequence of human glucagon receptor (human) (P47871 26-477): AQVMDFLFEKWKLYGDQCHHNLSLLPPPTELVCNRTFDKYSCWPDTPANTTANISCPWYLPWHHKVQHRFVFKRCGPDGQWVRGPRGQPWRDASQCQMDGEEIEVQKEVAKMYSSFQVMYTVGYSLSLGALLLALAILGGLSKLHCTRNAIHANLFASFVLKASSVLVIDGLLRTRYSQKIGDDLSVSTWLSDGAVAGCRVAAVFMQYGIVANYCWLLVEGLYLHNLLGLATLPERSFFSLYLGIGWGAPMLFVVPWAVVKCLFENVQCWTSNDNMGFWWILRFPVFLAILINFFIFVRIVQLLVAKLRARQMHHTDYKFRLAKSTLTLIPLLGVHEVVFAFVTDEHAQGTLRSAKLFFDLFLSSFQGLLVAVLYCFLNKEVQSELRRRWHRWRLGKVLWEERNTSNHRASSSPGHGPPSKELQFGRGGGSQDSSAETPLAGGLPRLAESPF
Binder,Relative cAMP EC50 [1],"cAMP Rel EC50, nM (in the presence of 1% HSA) [1]",Relative cAMP EC50 [2],"cAMP Rel EC50, nM (in the presence of 1% HSA) [2]",Relative cAMP EC50 [3],"cAMP Rel EC50, nM (in the presence of 1% HSA) [3]",cAMP Rel EC50 (1% HSA) [1],cAMP Rel EC50 (1% HSA) [2],cAMP Rel EC50 (1% HSA) [3],cAMP Rel EC50 (in the presence of 1% HSA) [1],cAMP Rel EC50 (in the presence of 1% HSA) [2],cAMP Rel EC50 (in the presence of 1% HSA) [3]
YXQGTFTSDFSXXLDKKAQXAFIEWLLEGGESSGEPPPSGE (synthetic construct; SITE 2: note = 2-Aminoisobutyric Acid; SITE 12: note = L-ornithine; SITE 13: note = alpha-methyl-leucine; SITE 17: note = Lysine is chemically modified through conjugation of the epsilon-amino group of the Lysine side chain with (2-[2-(2-Amino-ethoxy)-ethoxy]-acetyl)-(gamma-Glu)) [Example 123],0.531 nM,94.6 nM,4.55 nM,1740 nM,4.82 nM,1500 nM,–,–,–,–,–,–
YXQGTFTSDFSXXLDKKAQXAFIEWLLEGGHSSGEPPPSGE (synthetic construct; SITE 2: note = 2-Aminoisobutyric Acid; SITE 12: note = L-ornithine; SITE 13: note = alpha-methyl-leucine; SITE 17: note = Lysine is chemically modified through conjugation of the epsilon-amino group of the Lysine side chain with (2-[2-(2-Amino-ethoxy)-ethoxy]-acetyl)-(gamma-Glu)) [Example 124],0.344 nM,54.7 nM,2.92 nM,567 nM,6.14 nM,801 nM,–,–,–,–,–,–
YXQGTFTSDFSXXLDKKAQXAFIEYLLEAGPSSGAPPPSGE (synthetic construct; SITE 2: note = 2-Aminoisobutyric Acid; SITE 12: note = L-ornithine; SITE 13: note = alpha-methyl-leucine; SITE 17: note = Lysine is chemically modified through conjugation of the epsilon-amino group of the Lysine side chain with (2-[2-(2-Amino-ethoxy)-ethoxy]-acetyl)2-(gamma-Glu)) [Example 128],0.307 nM,24.3 nM,6.76 nM,1090 nM,3.5 nM,679 nM,–,–,–,–,–,–
YXQGTXTSDXXIXLDXXAQXEFIEXLIEGGPSSGAPPPSGSE (synthetic construct; SITE 2: note = 2-Aminoisobutyric Acid; SITE 6: note = alpha-methyl-2-fluoro-L-phenylalanine; SITE 10: note = 3-(4-Pyridyl)-L-alanine; SITE 11: note = alpha-methyl-L-serine; SITE 13: note = alpha-methyl-leucine; SITE 16: note = L-ornithine; SITE 17: note = Ornithine is chemically) [Example 1212],0.00702 nM,–,1.71 nM,–,0.357 nM,–,0.614 nM,230 nM,38.2 nM,–,–,–
YXQGTXTSDXXIXLDXQAQXEFIEXLIEGGPSSGAPPPSGSE (not fully specified; no fatty acid; synthetic construct; SITE 2: note = 2-Aminoisobutyric Acid; SITE 6: note = alpha-methyl-2-fluoro-L-phenylalanine; SITE 10: note = 3-(4-Pyridyl)-L-alanine; SITE 11: note = alpha-methyl-L-serine; SITE 13: note = alpha-methyl-leucine; SITE 16: note = L-ornithine; SITE 20: note = 3-(4-Pyridyl)-L-alanine) [Example 1233],0.012 nM,–,9.48 nM,–,1.09 nM,–,0.00988 nM,9.9 nM,1.06 nM,–,–,–
YXQGTFTSDFSKXLDKKAQXAFIEYLLAGGPSSGEPPPGGS (synthetic construct; SITE 2: note = 2-Aminoisobutyric Acid; SITE 13: note = alpha-methyl-leucine; SITE 17: note = Lysine is chemically modified through conjugation of the epsilon-amino group of the Lysine side chain with (2-[2-(2-Amino-ethoxy)-ethoxy]-acetyl)-(gamma-Glu)-CO-(CH2) 18-CO2H; SITE 20: n) [Example 9],0.205 nM,–,7.19 nM,–,1.61 nM,–,–,–,–,41.8 nM,1430 nM,402 nM
YXQGTFTSDFSKXLDKKAQXAFIEYLLAGGPSSGAPPPSGS (synthetic construct; SITE 2: note = 2-Aminoisobutyric Acid; SITE 13: note = alpha-methyl-leucine; SITE 17: note = Lysine is chemically modified through conjugation of the epsilon-amino group of the Lysine side chain with (2-[2-(2-Amino-ethoxy)-ethoxy]-acetyl)-(gamma-Glu)-CO-(CH2) 18-CO2H; SITE 20: n) [Example 14],0.17 nM,–,7.23 nM,–,1.67 nM,–,–,–,–,34.7 nM,1420 nM,232 nM
YXQGTFTSDFSKXLDKKAQXAFIQYLLAGGPSSGEPPPSEG (synthetic construct; SITE 2: note = 2-Aminoisobutyric Acid; SITE 13: note = alpha-methyl-leucine; SITE 17: note = Lysine is chemically modified through conjugation of the epsilon-amino group of the Lysine side chain with (2-[2-(2-Amino-ethoxy)-ethoxy]-acetyl)-(gamma-Glu)-CO-(CH2) 18-CO2H; SITE 20: n) [Example 27],0.41 nM,–,8.91 nM,–,2.33 nM,–,–,–,–,72.3 nM,1180 nM,464 nM
YXQGTFTSDFSXXLDKKAQXAFIEWLLEGGHSSGEPPPEGS (synthetic construct; SITE 2: note = 2-Aminoisobutyric Acid; SITE 12: note = L-ornithine; SITE 13: note = alpha-methyl-leucine; SITE 17: note = Lysine is chemically modified through conjugation of the epsilon-amino group of the Lysine side chain with (2-[2-(2-Amino-ethoxy)-ethoxy]-acetyl)-(gamma-Glu)) [Example 127],0.312 nM,62.9 nM,4.35 nM,1010 nM,4.8 nM,1000 nM,–,–,–,–,–,–
YXQGTFTSDFSKXLDKKAQXAFIEYLLAGGPSSGEPPPSEG (synthetic construct; SITE 2: note = 2-Aminoisobutyric Acid; SITE 13: note = alpha-methyl-leucine; SITE 17: note = Lysine is chemically modified through conjugation of the epsilon-amino group of the Lysine side chain with (2-[2-(2-Amino-ethoxy)-ethoxy]-acetyl)2-(gamma-Glu)-CO-(CH2 )16-CO2H; SITE 20:) [Example 25],0.128 nM,–,6.8 nM,–,3.34 nM,–,–,–,–,19.8 nM,939 nM,520 nM
